Measured values taken from patent US20130022541A1.

Assays:
HLA-DR [1] = test: flow cytometry, surface, FSCCL cells
HLA-DR [2] = test: flow cytometry, permeabilized (cytoplasmic), Panc-1 cells
HLA-DR [3] = test: flow cytometry, surface, CAG cells
HLA-DR [4] = test: flow cytometry, permeabilized (cytoplasmic), Moser cells
HLA-DR [5] = test: flow cytometry, permeabilized (cytoplasmic), RL cells
HLA-DR [6] = test: flow cytometry, permeabilized (cytoplasmic), BxPC-3 cells
HLA-DR [7] = test: flow cytometry, surface, U87 cells + IFN-γ
HLA-DR [8] = test: flow cytometry, permeabilized (cytoplasmic), LS174T cells
HLA-DR [9] = test: flow cytometry, surface, Panc-1 cells + IFN-γ
HLA-DR [10] = test: flow cytometry, surface, RL cells
HLA-DR [11] = test: flow cytometry, surface, BxPC-3 cells
HLA-DR [12] = test: flow cytometry, permeabilized (cytoplasmic), CAG cells
HLA-DR [13] = test: flow cytometry, permeabilized (cytoplasmic), BxPC-3 cells + IFN-γ
HLA-DR [14] = test: flow cytometry, permeabilized (cytoplasmic), U118 cells + IFN-γ
HLA-DR [15] = test: flow cytometry, surface, RL cells + IFN-γ
HLA-DR [16] = test: flow cytometry, permeabilized (cytoplasmic), LS174T cells + IFN-γ
HLA-DR [17] = test: flow cytometry, permeabilized (cytoplasmic), Moser cells + IFN-γ
HLA-DR [18] = test: flow cytometry, surface, Lovo cells + IFN-γ
HLA-DR [19] = test: flow cytometry, surface, Capan-1 cells
HLA-DR [20] = test: flow cytometry, surface, Aspc-1 cells
HLA-DR [21] = test: flow cytometry, surface, Moser cells
HLA-DR [22] = test: flow cytometry, surface, KMS11 cells + IFN-γ
HLA-DR [23] = test: flow cytometry, surface, U118 cells
HLA-DR [24] = test: flow cytometry, surface, KMS11 cells
HLA-DR [25] = test: flow cytometry, permeabilized (cytoplasmic), Lovo cells + IFN-γ
HLA-DR [26] = test: flow cytometry, permeabilized (cytoplasmic), KMS11 cells
HLA-DR [27] = test: flow cytometry, surface, U87 cells
HLA-DR [28] = test: flow cytometry, surface, Panc-1 cells
HLA-DR [29] = test: flow cytometry, permeabilized (cytoplasmic), FSCCL cells + IFN-γ
HLA-DR [30] = test: flow cytometry, permeabilized (cytoplasmic), RL cells + IFN-γ
HLA-DR [31] = test: flow cytometry, surface, BxPC-3 cells + IFN-γ
HLA-DR [32] = test: flow cytometry, permeabilized (cytoplasmic), HT29 cells
HLA-DR [33] = test: flow cytometry, permeabilized (cytoplasmic), U118 cells
HLA-DR [34] = test: flow cytometry, permeabilized (cytoplasmic), Capan cells + IFN-γ
HLA-DR [35] = test: flow cytometry, surface, HT29 cells
HLA-DR [36] = test: flow cytometry, permeabilized (cytoplasmic), U87 cells
HLA-DR [37] = test: flow cytometry, permeabilized (cytoplasmic), HT29 cells + IFN-γ
HLA-DR [38] = test: flow cytometry, surface, U118 cells + IFN-γ
HLA-DR [39] = test: flow cytometry, surface, CAG cells + IFN-γ
HLA-DR [40] = test: flow cytometry, permeabilized (cytoplasmic), U87 cells + IFN-γ
HLA-DR [41] = test: flow cytometry, permeabilized (cytoplasmic), TU118 cells + IFN-γ
HLA-DR [42] = test: flow cytometry, surface, Moser cells + IFN-γ
HLA-DR [43] = test: flow cytometry, surface, FSCCL cells + IFN-γ
HLA-DR [44] = test: flow cytometry, permeabilized (cytoplasmic), Capan-1 cells
HLA-DR [45] = test: flow cytometry, permeabilized (cytoplasmic), KMS11 cells + IFN-γ
HLA-DR [46] = test: flow cytometry, surface, LS174T cells + IFN-γ
HLA-DR [47] = test: flow cytometry, permeabilized (cytoplasmic), TU118 cells
HLA-DR [48] = test: flow cytometry, permeabilized (cytoplasmic), Panc-1 cells + IFN-γ
HLA-DR [49] = test: flow cytometry, permeabilized (cytoplasmic), FSCCL cells
HLA-DR [50] = test: flow cytometry, permeabilized (cytoplasmic), Lovo cells
HLA-DR [51] = test: flow cytometry, surface, HT29 cells + IFN-γ
HLA-DR [52] = test: flow cytometry, surface, Lovo cells
HLA-DR [53] = test: flow cytometry, surface, TU118 cells
HLA-DR [54] = test: flow cytometry, permeabilized (cytoplasmic), Aspc-1 cells
HLA-DR [55] = test: flow cytometry, permeabilized (cytoplasmic), Aspc-1 cells + IFN-γ
HLA-DR [56] = test: flow cytometry, surface, TU118 cells + IFN-γ
HLA-DR [57] = test: flow cytometry, surface, LS174T cells
HLA-DR [58] = test: flow cytometry, surface, Aspc-1 cells + IFN-γ
HLA-DR [59] = test: flow cytometry, surface, Capan cells + IFN-γ
HLA-DR [60] = test: flow cytometry, permeabilized (cytoplasmic), CAG cells + IFN-γ

- flow cytometry fluorescence (HLA-DR [1]): 1090
- flow cytometry fluorescence (HLA-DR [2]): 22.7
- flow cytometry fluorescence (HLA-DR [3]): 1930
- flow cytometry fluorescence (HLA-DR [4]): 18.2
- flow cytometry fluorescence (HLA-DR [5]): 1060
- flow cytometry fluorescence (HLA-DR [6]): 14.2
- flow cytometry fluorescence (HLA-DR [7]): 172
- flow cytometry fluorescence (HLA-DR [8]): 23.4
- flow cytometry fluorescence (HLA-DR [9]): 4.7
- flow cytometry fluorescence (HLA-DR [10]): 750
- flow cytometry fluorescence (HLA-DR [11]): 2.3
- flow cytometry fluorescence (HLA-DR [12]): 2320
- flow cytometry fluorescence (HLA-DR [13]): 130
- flow cytometry fluorescence (HLA-DR [14]): 352
- flow cytometry fluorescence (HLA-DR [15]): 862
- flow cytometry fluorescence (HLA-DR [16]): 42.3
- flow cytometry fluorescence (HLA-DR [17]): 40.5
- flow cytometry fluorescence (HLA-DR [18]): 276
- flow cytometry fluorescence (HLA-DR [19]): 5.5
- flow cytometry fluorescence (HLA-DR [20]): 3.2
- flow cytometry fluorescence (HLA-DR [21]): 4
- flow cytometry fluorescence (HLA-DR [22]): 665
- flow cytometry fluorescence (HLA-DR [23]): 6.1
- flow cytometry fluorescence (HLA-DR [24]): 677
- flow cytometry fluorescence (HLA-DR [25]): 989
- flow cytometry fluorescence (HLA-DR [26]): 879
- flow cytometry fluorescence (HLA-DR [27]): 41.9
- flow cytometry fluorescence (HLA-DR [28]): 4.3
- flow cytometry fluorescence (HLA-DR [29]): 2520
- flow cytometry fluorescence (HLA-DR [30]): 1180
- flow cytometry fluorescence (HLA-DR [31]): 43.8
- flow cytometry fluorescence (HLA-DR [32]): 9.1
- flow cytometry fluorescence (HLA-DR [33]): 24.6
- flow cytometry fluorescence (HLA-DR [34]): 253
- flow cytometry fluorescence (HLA-DR [35]): 3.3
- flow cytometry fluorescence (HLA-DR [36]): 102
- flow cytometry fluorescence (HLA-DR [37]): 638
- flow cytometry fluorescence (HLA-DR [38]): 197
- flow cytometry fluorescence (HLA-DR [39]): 1810
- flow cytometry fluorescence (HLA-DR [40]): 429
- flow cytometry fluorescence (HLA-DR [41]): 215
- flow cytometry fluorescence (HLA-DR [42]): 8.5
- flow cytometry fluorescence (HLA-DR [43]): 1610
- flow cytometry fluorescence (HLA-DR [44]): 11.6
- flow cytometry fluorescence (HLA-DR [45]): 927
- flow cytometry fluorescence (HLA-DR [46]): 4.7
- flow cytometry fluorescence (HLA-DR [47]): 23.6
- flow cytometry fluorescence (HLA-DR [48]): 64.1
- flow cytometry fluorescence (HLA-DR [49]): 1470
- flow cytometry fluorescence (HLA-DR [50]): 32.5
- flow cytometry fluorescence (HLA-DR [51]): 298
- flow cytometry fluorescence (HLA-DR [52]): 7.3
- flow cytometry fluorescence (HLA-DR [53]): 5.08
- flow cytometry fluorescence (HLA-DR [54]): 11
- flow cytometry fluorescence (HLA-DR [55]): 73.6
- flow cytometry fluorescence (HLA-DR [56]): 93.5
- flow cytometry fluorescence (HLA-DR [57]): 5.3
- flow cytometry fluorescence (HLA-DR [58]): 15.2
- flow cytometry fluorescence (HLA-DR [59]): 66.2
- flow cytometry fluorescence (HLA-DR [60]): 2420
B1: hL243γ4P (anti-HLA-DR) (antibody, from a related filing, V domains shown)
VH: QVQLQQSGSELKKPGASVKVSCKASGFTFTNYGMNWVKQAPGQGLKWMGWINTYTREPTYADDFKGRFAFSLDTSVSTAYLQISSLKADDTAVYFCARDITAVVPTGFDYWGQGSLVTVSS
VL: DIQLTQSPSSLSASVGDRVTITCRASENIYSNLAWYRQKPGKAPKLLVFAASNLADGVPSRFSGSGSGTDYTFTISSLQPEDIATYYCQHFWTTPWAFGGGTKLQIKR
